Tests used:
[1] = biological target: T1, CD163 on peripheral blood dendritic cells (Homo sapiens, UniProt Q86VB7); test: Flow cytometry of CD163 expression on peripheral blood dendritic cells; assay type: cell-based
T1 construct: Freshly drawn peripheral whole blood samples or PBMC; endogenous in cells; host or cells: human peripheral blood monocytes, blood dendritic cells, monocyte-derived macrophages (healthy donors, buffy coats)
Description: Freshly drawn peripheral whole blood samples (approx. 3×10^6 cells) were stained with isotype-matched control antibody (Mouse IgG1 PE, k isotype control, MOPC-21, BD Pharmingen™, San Diego, Calif., USA) or a relevant antibody (anti-CD3 FITC, UCHT1, BD Biosciences, San Diego, Calif., USA; anti-CD11c FITC, KB90, DAKO A/S, Glostrup, Denmark; anti-CD14 FITC, RM052, 10Tests®, Beckman and Coulter, Marseille, France; anti-CD16 FITC, 3G8, BD Biosciences, San Diego, Calif., USA; anti-CD19 FITC, SJ25C1, BD Biosciences, San Diego, Calif., USA; anti-CD20 FITC, CAT 13.6E12, Diatec.com A/S, Oslo, Norway; anti-CD56 FITC, NCAM16.2, BD Biosciences, San Diego, Calif., USA; anti-CD91 FITC, A2MR-a2, BD Biosciences, San Diego, Calif.; anti-HLA-DR FITC, EDU-1, Diatec.com A/S, Oslo, Norway; anti-CD163 PE, MAC2-158, IQ Products, Groningen, The Netherlands; anti-CD163 PE, GHI/61, BD Biosciences, CA, USA; anti-ILT3/CD85k PE-Cy5, ZM3.8, IOTests®, Beckman and Coulter, Marseille, France; anti-HLA-DR PerCP, L234, BD Biosciences, San Diego, Calif.; anti-CD4 APC, EDU-2, Diatec.com A/S, Oslo, Norway; anti-CD14 APC, 18D11, Diatec.com A/S, Oslo, Norway) for 15 minutes at room temperature in the dark. […] For CD163 density quantitation, flow cytometric estimation of antibodies bound/cell (ABCs) was performed using Quantibrite PE beads (Becton Dickinson, San Jose, Calif., USA) as recommended by the manufacturer. […]

[2] = biological target: CD163 (Homo sapiens, UniProt Q86VB7); test: Surface plasmon resonance (Biacore) analysis of mAb binding to immobilized CD163
Procedure: (§1) SPR analysis of the binding of mAbs to CD163 was carried out on a Biacore 2000 instrument (Biacore, Uppsala, Sweden). The Biacore sensor chips (type CM5) were activated with a 1:1 mixture of 0.2 M N-ethyl-N′-(3-dimethylaminopropyl) carbodiimide and 0.05 M N-hydroxysuccimide in water. Purified recombinant CD163 were immobilized in 10 mM sodium acetate, pH 4.0, and the remaining binding sites were blocked with 1 M ethanolamine, pH 8.5. The SPR signal generated from immobilized recombinant CD163 proteins corresponded to 40-70 fmol of protein/mm^2. Sensorgrams were generated using mAb concentrations ranging from 5-100 nM. The flow cells were regenerated with 1.6 M glycine-HCl, pH 3. The running buffer used for the experiment was either CaHBS 10 mM Hepes, 150 mM NaCl, 3.0 mM CaCl2, 1.0 mM EGTA, and 0.005% Tween 20, […], and 0.005% Tween 20, pH 7.4, mAb samples were dissolved in the same buffer as the running buffer used. All binding data were analyzed using the Biamolecular Interaction Analysis evaluation program version 3.1.
as §1, with “7.4, KN2/NRY and Mac-158” for “7.4, mAb”, “buffer used at a concentration of 5 μg/ml.” for “buffer used.”

Sequence of CD163 (Q86VB7 42-1156): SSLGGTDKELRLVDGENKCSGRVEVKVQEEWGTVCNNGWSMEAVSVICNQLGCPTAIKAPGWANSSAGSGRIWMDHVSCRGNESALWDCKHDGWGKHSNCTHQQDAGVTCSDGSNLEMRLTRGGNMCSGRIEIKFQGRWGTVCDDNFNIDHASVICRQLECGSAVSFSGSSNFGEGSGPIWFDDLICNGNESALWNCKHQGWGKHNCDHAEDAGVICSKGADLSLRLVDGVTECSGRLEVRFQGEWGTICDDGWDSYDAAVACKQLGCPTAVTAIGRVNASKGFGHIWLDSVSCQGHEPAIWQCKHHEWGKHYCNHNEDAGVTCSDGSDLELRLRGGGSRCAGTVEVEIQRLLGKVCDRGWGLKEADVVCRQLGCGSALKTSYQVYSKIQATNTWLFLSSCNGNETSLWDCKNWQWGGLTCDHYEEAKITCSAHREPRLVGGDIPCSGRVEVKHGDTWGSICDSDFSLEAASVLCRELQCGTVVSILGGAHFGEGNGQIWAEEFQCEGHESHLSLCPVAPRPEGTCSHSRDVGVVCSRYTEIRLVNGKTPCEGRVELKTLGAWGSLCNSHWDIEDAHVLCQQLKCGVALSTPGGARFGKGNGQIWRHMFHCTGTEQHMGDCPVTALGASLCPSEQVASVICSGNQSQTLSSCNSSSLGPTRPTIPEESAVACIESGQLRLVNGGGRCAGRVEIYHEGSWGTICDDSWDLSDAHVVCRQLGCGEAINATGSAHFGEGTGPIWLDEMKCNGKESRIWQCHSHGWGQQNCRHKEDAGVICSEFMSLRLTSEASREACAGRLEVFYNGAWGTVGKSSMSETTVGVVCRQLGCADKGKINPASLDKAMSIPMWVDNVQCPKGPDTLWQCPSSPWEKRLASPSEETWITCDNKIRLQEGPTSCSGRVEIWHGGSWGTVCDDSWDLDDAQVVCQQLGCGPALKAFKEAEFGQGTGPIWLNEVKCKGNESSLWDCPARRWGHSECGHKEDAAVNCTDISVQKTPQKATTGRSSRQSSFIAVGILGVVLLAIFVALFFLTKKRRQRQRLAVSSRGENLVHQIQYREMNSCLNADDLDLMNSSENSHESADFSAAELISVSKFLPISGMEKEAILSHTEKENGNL
T1 sequence (Q86VB7 42-1156): as above

B1: MAC2-158: anti-human CD163 murine mAb, binds SRCR domain 1, IQ Products; VH SEQ ID NO: 1, VL SEQ ID NO: 2 (antibody, V domains shown)
VH: DVQLQESGPGLVKPSQSLSLTCTVTGYSITSDYAWNWIRQFPGNKLEWMGYITYSGITNYNPSLKSQISITRDTSKNQFFLQLNSVTTEDTATYYCVSGTYYFDYWGQGTTLTVSS
VL: SVVMTQTPKSLLISIGDRVTITCKASQSVSSDVAWFQQKPGQSPKPLIYYASNRYTGVPDRFTGSGYGTDFTFTISSVQAEDLAVYFCGQDYTSPRTFGGGTKLEIKRA
modifications: Mac2-158 VH; Mac2-158 VL
With B1 the “fraction of peripheral blood dendritic cells recognized (CD163 expressing)” value ([1]; CD14-ILT3+HLA-DR+ cells, whole blood) was 32.3%, the “MFI, reflecting the amount of CD163 receptors per cell” value ([1]; peripheral blood dendritic cells) was 107.5 and the “affinity for human CD163 immobilized on a Biacore chip” value ([2]; KN2/NRY compared with Mac2-158, 5 μg/ml, FIG. 19) was “Virtually similar affinities”. For the same molecule, the “strength of binding to CD163 in Biacore studies” value ([2]; comparison between mAbs) was “high affinity”, the “affinities for CD163” value ([2]; in both 2 mM free Ca2+ and 10 mM EDTA) was “nanomolar or sub-nanomolar range” and the “calcium dependence of binding activity in SPR-analysis” value ([2]; with/without calcium) was “binding activity regardless extracellular levels of calcium”.

Source: patent US20170119790A1, “Agents, Uses and Methods” (CYTOGUIDE A/S, priority 2009, published 2017)
